Assay: label from the status in PepcDB records
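Note: failed if final PepcDB status was selected cloned or expressed and not failed if soluble or beyond.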

Sequence	protein production
MSGDVQPRKRKDKRRKRDDDESSHGVHITKMGNEDLHLHVHHDHGTGGHWCAKIIFFALMAVLLGLVGLIIMENRGLEDLDTPLSESRFSKVFDGWVDEHRDEHDGHDVQEPSGEALDDHDEHDDHDDHEDEDEEPLTEELEEELEEEEEPTEEDEPAADEEYEEDEDEENNAGENITAEDAEEEEEEEDNDDEGTVEATVEATTEATTEATGEYEAEEDDEDEAAADDDAVESTEAPLSKAEEQEDDEDEDEEEQEIEESVEPERSQYAAQSAPAKDNNDDDDDDDQDKNDADDGDDDEFESLAQQFENDPEDTVPAKAVESEEQDQDQADEEEPKEEGSSWLASQIKPKEAAPAPAEKEDPFEQELRKANEEMIRENYAQALRSFNTLTTNFAHEPSAHLGRARLLELLAKKERSNQRLWEAIDAYKRYLAFGELVASNQEFQTAGESCIENLRFLGHHRQATTIHELLINRLPEDPRLRNQLSLTYLMVNNLQQVEKVAVETLKLWPNNAVAQLHYGLALRQFHADYAKALPYLKYAVESGEEGTQEAFFYLSLGETMQRLSMKSEALEVYGKGVAKGFFASLYQRSLYNEPRLRAQPFWQPKETGYERQLEKLTLNWRAIRDEGLALLGRSGFFEDEAELLRDKGVWQQYELYAQGRRVKDNCRRAPITCSLLEEFPESAGCRRGQVKFSVMQAKTHVWPHCGPTNCRLRAHLTLAAPEPEKASLRVAEQERTWREGELFIFDDSFEHEVWHNGSQSRLVLILDMWHPQLSAAQRRSLSPI	failed
MSGEDEQQEQTIAEDLVVTKYKMGGDIANRVLRSLVEASSSGVSVLSLCEKGDAMIMEETGKIFKKEKEMKKGIAFPTSISVNNCVCHFSPLKSDQDYILKEGDLVKIDLGVHVDGFIANVAHTFVVDVAQGTQVTGRKADVIKAAHLCAEAALRLVKPGNQNTQVTEAWNKVAHSFNCTPIEGMLSHQLKQHVIDGEKTIIQNPTDQQKKDHEKAEFEVHEVYAVDVLVSSGEGKAKDAGQRTTIYKRDPSKQYGLKMKTSRAFFSEVERRFDAMPFTLRAFEDEKKARMGVVECAKHELLQPFNVLYEKEGEFVAQFKFTVLLMPNGPMRITSGPFEPDLYKSEMEVQDAELKALLQSSASRKTQKKKKKKASKTAENATSGETLEENEAGD	failed
MSGEPDGERVIAGRYRLLSPLGEGGMGTVWRARDEVLRREVAVKEVRAPAGLSQPDVGRMYARLEREAWAAARISHPNVVTVYDVATDGGRPWIVMELVRGLSLADLLDAEGPLEPRRAALIGAEVLAALRAAHAAGVLHRDVKPANVLLANDGRVVLTDFGIARVEGSEALTMTGEVVGSPEFLAPERALGRTPGAASDLWSLGVLLYATVEGVSPFRQGTPLSTLRAIVDEAVPPPRRAGALGPVVEGLLRKDPAERLPAEEAERALRLVGAGGAPPGRGPRTGAPPSGAFAPTVVAAHPGPPTAPTPPMPVPAAGDTSAAGAPGAPGGRDRRARAVLLVGLAVLVLALAGLTYSLLDRSDGGGGTEGSGGSPGPGATSAATSGGAGEPSPPASSGTDGGQSGPAAQSVEVTVVGSRTHYSGACPPPHDRAPAFTATFTVGRLPAEVGYRWVTADGSVSDPGWRTLSFPSGGERSRQDGVVVTTHDDTGAFESAVRVEVRSPVRATSDAVAFSVTCGTGTETETGTGTPSGGASHSSSPSAPSSSPSA	failed
MSGITMAMRGPRLEFAVGAFLLLTLASLLVLAVASTNQRWGFGSSQYTLTARFSQIGQLRAQAPVKIGGVTIGKVSDISLDPTKFDSIVTLSLDTRYKDLPADTSAGIFTSGLLGESYIGLQPGGDPDTLKPGDEIGFTQPAVDLLQLVGKYMFSGGGSGSNANVPAATNGQAPAPARTAPPPTEPHQ	failed
MSGLLPLLDFAGYVALLLWGVHMVQTGVQRAFGAALSIALGRALGTRLRAFASGLGITAALQSSTATGLMITGFAAGGVVALVPALAAMLGANVGTTLIVQLLSFDLTSLAPILILAGVWMFRRAAPGRTRDLGRVFIGLGLLLLSLHQLVQLFQPFETAPLLGVLLDALASQPVAAVLLAAALTWAAHSSVAVVVLVMSLASHGMVNPALAFALVLGANLGTAINPMIEGVTGDDPAARRLPLGNLLTRVAGVLAGIILLPWLQPWLSGLAGDPAHAVANFHTLFNVVIALVFLPILTPYAALLTRWLPKRADPNDPARPQYLDEWAHDVPAVALGNAAREALRMADMLQTLLLYARAGFKRDNRHRMVQARQLDSALDKLETAITTYLATLDQENMTREDHQRLDTILAFCSNIGHAGDIAYHGLLNHIGRLRKQGLLLSADQRASLDATLGELIANQRQAAALFVTDDLRQARALAGEKARFRALEAEAAETQLQQIKSGKVDAAEVGALYLDILRDLKGINSHVVGASAYPLLARHGELLPSRLRDAGN	failed

From a protein production outcome set (Wang et al. 2014)
